Experimental findings from the supplement of paper PMC12042874 are described below.

± gives the uncertainty stated by the source.

A short description of this data set: amyloid nucleation score (Sup35N fusion, yeast selection) (log enrichment); library NNK1; higher = more nucleation; inactive = no reads after selection. Summed up: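 The nucleation score is a DiMSum log enrichment of output over input reads, centred on the mode score of non-aggregating sequences. Sequences under 100 input reads were excluded, and reads came from Illumina sequencing of plasmid inserts. Psi-negative yeast expressing Sup35N fused to peptides of 20 random codons were induced with 100 μM copper sulfate for 24 hours and grown 7 days at 30°C on medium lacking adenine and uracil. Random libraries had three technical output replicates.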
Consider FNIHCVSSA, for which the amyloid nucleation score is -0.015 ± 0.47. FNISFCIASSYVNTIGKQQG showed an amyloid nucleation score of 3.32 ± 0.12. In turn, FNLWIP showed an amyloid nucleation score of 2.13 ± 0.17.

Substance FNPLRVNYGLWDRSAR returned an amyloid nucleation score of 0.248 ± 0.83. To FNVALFMEI belongs 1.07 ± 0.27.

As for FNYEGYNMSCCGYRQFMEFG, the amyloid nucleation score came out at 5.87 ± 0.073.

Regarding FPCLTSSTSGYWSLI, the amyloid nucleation score was found to be 1.32 ± 0.12. For FPFAYGVSESQSSVIHVLDV the value was -0.063 ± 0.26. FPLAIVLIVN had an amyloid nucleation score of 0.059 ± 0.39.

FPSNPYPNLPNMDVKRSNAF: the amyloid nucleation score result is “inactive”. For FPYGSVIVVFVDFWYRLSSV the value was -0.343 ± 0.34. For FQHTLGRKA the value was 0.438 ± 0.68; for FQMLF, -0.752 ± 0.7; for FQMNSCNWSVTGRIVFPDVY, 1.58 ± 0.42.

In turn, FQSISGFSATHWIFFMEGTY yielded an amyloid nucleation score of 0.216 ± 0.45. To FRALKLEAIPAKVGAPYLVP belongs 0.045 ± 0.4; to FRFGTA, 0.39 ± 0.49. FRGFVVGGGT showed an amyloid nucleation score of -0.664 ± 0.61. To FRIVGSRMFVLLLCYVSSGR belongs 0.241 ± 0.27. On to FRLDNLRCTWVFRYPIGESS, for which the amyloid nucleation score was 1.17 ± 0.73.

FRLSWHSYNSMWINTVTSPQ gave an amyloid nucleation score of 2.75 ± 0.078. To FRNGDGVQPWLTWHAV belongs 1.28 ± 0.33. To FRQPGYMCEIRVVGFGPKPL belongs -0.274 ± 0.9; to FRRMVTVNEAWHHRKAGSAN, 1.47 ± 0.65. Consider FRSFLVPACYHGFGDGYMFF, for which the amyloid nucleation score is -0.439 ± 0.77.

FRSVGVYAISNLYGHSRYFS showed an amyloid nucleation score of -0.533 ± 0.42. For FRSVSGNMYTLLFRIE the value was 1.62 ± 0.24; for FRTHVGSDCGL, -0.026 ± 1. Substance FRVVCVHSLSMGNVFNFDWR had an amyloid nucleation score of 4.77 ± 0.08.

For the substance FSCCILPCSLSHSMVFLGSG, the amyloid nucleation score worked out at 8.064 ± 0.08. For the substance FSCGCIRYFSG, the amyloid nucleation score was -0.115 ± 0.91. To FSCLNSFKRVFNFNIPASVC belongs -0.863 ± 1.

Substance FSDNRASPESKPQCVTGRRD displayed an amyloid nucleation score of 0.669 ± 0.31. To FSEVTLFFPKDAILEFSARC belongs -0.353 ± 0.79; to FSFRRFCLCMLREGHTRQLG, -0.957 ± 2.4; to FSFSIAMVNLVEDATVDCAG, -0.048 ± 0.31.

Turning to FSFYMLRFFSKTSYYSLMSF, the amyloid nucleation score is -0.721 ± 0.27. For FSGCGWYRTVDYGGP the value was “inactive”; for FSGQAITLVCWIVGQILPFS, “inactive”. As for FSHAGD, the amyloid nucleation score was -0.494 ± 0.71. To FSISKLFGLNADTVHTRHKK belongs 0.073 ± 0.38; to FSKTAGEVAYSLTESTDVRS, -1.26 ± 0.88; to FSMGGYFLFLCNNFTLYHIS, 7.598 ± 0.07. FSMIMSLDVL showed an amyloid nucleation score of -0.397 ± 0.4. Consider FSNLKISWECNRCGSYYDCE, for which the amyloid nucleation score is -0.122 ± 1.4. To FSNRWFC belongs -0.578 ± 0.31; to FSQLYMGMYPGHNLLKYHSG, -0.275 ± 0.22.

In turn, FSQVSEEIIGVFLSISYCIL came in with an amyloid nucleation score of 2.93 ± 0.074. As to FSSICSRMEEGMTE, the amyloid nucleation score came to 0.001 ± 0.34. To FSSRWSI belongs -0.138 ± 0.6. Turning to FSSSWELVRLYTASCKHDSK, the amyloid nucleation score is 0.782 ± 0.2. For FSTAM the value was 0.895 ± 0.79; for FSVLVPMYK, -0.361 ± 0.6.

With FSVRGYSNLSAEDFINLKVP, the amyloid nucleation score is -0.522 ± 1.4. For FSVYVGVILCVSATVDVWAC the value was 1.87 ± 0.23.

Regarding FSYLSFCPVVSFESTFPTPM, the amyloid nucleation score was 5.29 ± 0.066. For the substance FSYRSIWLRVLRV, the amyloid nucleation score was -0.111 ± 0.4. FTGDVPEDTLRLSSFENMRR yielded an amyloid nucleation score of 0.384 ± 0.53.
